{"source": "paper PMC5640846", "key": {"[1]": {"target": "HTNV Gn ectodomain (Hantaan virus glycoprotein Gn, residues 18 to 371) (Hantaan virus (HTNV))", "assay": "AUC"}, "[2]": {"target": "HTNV Gn ectodomain (Hantaan virus glycoprotein Gn, residues 18 to 371) (Hantaan virus (HTNV))", "assay": "crystal structure"}}, "note": "Where “and” joins values, the source holds several entries; their conditions need not be identical. Equal entries are not always repeated.", "data": [{"substance": "HTNV Gn ectodomain (Hantaan virus glycoprotein Gn, residues 18 to 371) (domain or fragment)", "values": [{"measurement": "stoichiometry N", "setting": "[1]", "result": "2 and 3 and 4"}, {"measurement": "stoichiometry N", "setting": "[2]", "result": 4}]}]}
